Source: patent US10106582B2, “Complex-formation-modulating agents and uses therefor” (Factor Therapeutics Limited, priority 2012, dated 2018)
Where no end group is shown, it is not given here.

These sequences were tested against T1, IGF-II (Homo sapiens, UniProt P01344) (assay: VN-peptide array: binding of IGF-II to immobilized overlapping 16-mer VN peptides). Settings: relative spot intensity on VN-peptide array after IGF-II incubation, vs average intensity of negative controls (TotalLab).
T1 construct: purchased GroPep
Source text: (§1) The inventors designed small-molecule VN-peptides that could potentially disrupt the formation of the IGF-I:IGFBP:VN trimeric or the IGF-II:VN dimeric complexes by binding to the IGFBPs and/or IGF-II and preventing their association with VN within the complex. To design peptides, the binding sites of IGFBP-3/-5 and IGF-II on VN were first determined using VN-peptide arrays. The entire VN protein sequence, excluding the signal peptide (residues 1-19), was divided into overlapping 16-mer peptides with 3AA frameshift/offset (for peptide sequences refer to Table 6) and immobilized onto cellulose membranes (peptide spotting was outsourced to PepMetric Technologies Inc). For a schematic of the arrangement of VN peptides and controls refer to FIG. 2. The resultant peptide arrays were incubated either with IGFBP-3, IGFBP-5 or IGF-II ligands, probed with the respective antibodies, the membranes developed using ECL, and imaged using the ChemiDoc™ XRS system (BioRad). The spots on the membrane were analysed using TotalLab array quantification software (TotalLab Ltd, Newcastle, England) identifying positive peptide spots by comparing each spot to the combined intensities of the negative controls.
(§2) The entire VN protein sequence, excluding the signal peptide (residues 1-19), was divided into overlapping 16-mer peptides with 3 amino acid (AA) frameshift/offset. This yielded 148 overlapping peptides covering the entire VN sequence (residues 20-478) (Table 6) with a resolution of 3 AA. Peptide synthesis and spotting onto a cellulose membrane were outsourced to PepMetric Technologies Inc. (Richmond, BC, Canada). For a diagrammatic illustration of the strategy used to divide an example amino acid sequence into peptides and to spot them onto the membrane, please refer to http://www.pepmetric.com/html/Pep-Overlap.html. The VN-overlapping peptides were generated using FMOC (9-fluorenylmethoxycarbonyl) Solid-Phase SPOT synthesis onto PEG-grafted amine-functionalized cellulose membrane (Whatman® 540 filter paper). The peptides were spotted onto the cellulose membrane in a 10×16 grid with each peptide being 10˜50 nM in concentration with >70% purity. Finally, these membranes were acetylated in order to cap the free ends of the spotted peptides preventing them from degradation during shipping and storage.
(§3) Along with the VN-peptides these membranes were also spotted with a positive control (i.e., universal binding peptides tested by the manufacturer to be positive for antibodies from goat, mouse, rat and chicken) and a negative control (ie. non-binding peptides as well as BSA) controls. For a schematic of the arrangement of VN-peptides and controls refer to FIG. 2 and for the sequence of each peptide corresponding to the grid number refer to Table 6. Four such replicate membranes were prepared and stored at room temperature in a clip sealed plastic bag. Long-term storage was at −20° C.
(§4) Methanol or ethanol was used to enhance the rehydration of peptide spots that might be hydrophobic. The peptides spotted onto the membranes were activated by incubating in 3 mL of 70% ethanol for five mins. The membranes were subsequently washed three times, 10 minutes each, in 10 mL TBS (Tris Buffered Saline; 8 g NaCl, 0.2 g KCl and 6.1 g Tris Base into 1000 mL of milliQ water, pH 7) with gentle rocking. Membrane blocking was performed by incubating in 10 mL casein-based membrane blocking buffer (MBS; Sigma-Aldrich) overnight at 4° C. The following day, the membranes were washed twice, 10 minutes each, in 10 mL TBS-T (TBS+0.05% Tween-20; pH 7).
(§5) Ligands used to test binding to VN-peptides were IGFBP-3, IGFBP-5 and IGF-II. For ligand binding, four separate solutions of 1 μg/mL ligand in 10 mL MBS buffer were prepared and each membrane was incubated in one of the four ligand solutions overnight at 4° C., with gentle rocking. […] The following day, the membranes were washed three times, 10 minutes each, in 10 mL TBS-T. […]

T1 sequence (P01344 25-91 limits assumed): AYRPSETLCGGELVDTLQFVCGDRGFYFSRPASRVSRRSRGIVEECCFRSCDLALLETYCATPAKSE

| Intensity (against −ve control), IGFII | Sequence |
| --- | --- |
| 12-IGFII fold-change | DELCSYYQSCCTDYTA (not fully specified (N-terminus); cysteine pairing not given here) [Peptide 1B] |
| 17-IGF-II fold-change | LFSSEESNLGANNYDD (not fully specified (N-terminus)) [Peptide 7A] |
| 18-IGF-II fold-change | SEESNLGANNYDDYRM (not fully specified (N-terminus)) [Peptide 7B] |
| 12-IGF-II fold-change | SNLGANNYDDYRMDWL (not fully specified (N-terminus)) [Peptide 7C] |
| 1.5-IGFII fold-change | TRQPQFISRDWHGVPG (not fully specified (N-terminus)) [Peptide 6C] |

Each sequence was assayed against T2, IGFBP-3 (Homo sapiens, UniProt P17936) (assay: VN-peptide array: binding of IGFBP-3 to immobilized overlapping 16-mer VN peptides). Settings: relative spot intensity on VN-peptide array after IGFBP-3 incubation, vs average intensity of negative controls (TotalLab).
T2 construct: purchased GroPep
Source text: as §1, §2, §3, §4, §5

T2 sequence (P17936 28-291): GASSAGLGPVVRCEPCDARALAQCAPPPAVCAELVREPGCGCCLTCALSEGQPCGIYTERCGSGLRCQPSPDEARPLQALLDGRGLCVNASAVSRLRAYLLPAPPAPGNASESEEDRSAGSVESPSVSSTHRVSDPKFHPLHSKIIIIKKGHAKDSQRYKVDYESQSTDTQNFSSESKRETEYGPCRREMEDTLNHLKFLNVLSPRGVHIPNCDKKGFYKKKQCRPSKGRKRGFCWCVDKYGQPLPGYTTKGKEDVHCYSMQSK

| Intensity (against −ve control), BP3 | Sequence |
| --- | --- |
| 2.5-BP3 fold-change | DSWEDIFELLFWGRTS (not fully specified (N-terminus)) [Peptide 5D] |
| 4.5-BP3 fold-change | FAMMQRDSWEDIFELL (not fully specified (N-terminus)) [Peptide 5B] |
| 1.5-BP3 fold-change | FEHFAMMQRDSWEDIF (not fully specified (N-terminus)) [Peptide 5A] |
| 6-BP3 fold-change | KGKQYWEYQFQHQPSQ (not fully specified (N-terminus)) [Peptide 4A] |
| 4.5-BP3 fold-change | MQRDSWEDIFELLFWG (not fully specified (N-terminus)) [Peptide 5C] |
| 12-BP3 fold-change | QYWEYQFQHQPSQEEC (not fully specified (N-terminus)) [Peptide 4B] |
